# T1: Human Trop2 (human, UniProt P09758 27-274)
# T1 construct: Recombinant protein loaded onto His-K biosensors; also called TACSTD2; EGP-1
# T1 sequence (looked up): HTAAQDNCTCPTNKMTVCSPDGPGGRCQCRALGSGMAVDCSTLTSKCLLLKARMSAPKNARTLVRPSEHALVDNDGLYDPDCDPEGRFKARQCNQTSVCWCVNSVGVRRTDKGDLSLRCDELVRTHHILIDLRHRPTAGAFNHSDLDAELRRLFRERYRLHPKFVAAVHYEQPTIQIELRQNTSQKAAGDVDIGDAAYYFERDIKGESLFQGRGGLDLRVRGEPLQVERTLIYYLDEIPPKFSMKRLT
# T2: Rhesus macaque Trop2 (rhesus macaque, UniProt A0A5F8AGB8 27-274)
# T2 construct: Recombinant protein loaded onto His-K biosensors
# T2 sequence: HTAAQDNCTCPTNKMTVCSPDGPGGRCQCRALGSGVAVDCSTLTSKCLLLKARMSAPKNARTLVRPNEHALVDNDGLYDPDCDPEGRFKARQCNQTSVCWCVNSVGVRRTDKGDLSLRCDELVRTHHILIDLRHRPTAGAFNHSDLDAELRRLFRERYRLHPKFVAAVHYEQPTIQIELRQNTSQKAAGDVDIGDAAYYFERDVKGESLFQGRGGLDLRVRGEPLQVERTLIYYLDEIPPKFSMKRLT
# Experiments:
# [1] = target: T1, Human Trop2; test: BLI (OctetR8), Trop2 on His-K probes, antibody in solution
# [2] = target: T2, Rhesus macaque Trop2; test: as above
binder,measurement,setting,value
"L2-conjugated antibody (anti-Trop2 monoclonal antibody conjugated to L2 linker) (antibody, human IgG1, V domains shown, L2 linker coupled to lysine residue(s); 1-4 (preferably 1-2) L2 linkers per antibody; chain and positions not stated; L2 linker (dibenzoazacyclooctyne-glutaryl-amino tetraethylene glycol-pentafluorophenyl acetylpiperidinate) coupled to lysine residue(s); 1-4 (preferably 1-2) L2 linkers per antibody; chain and positions not stated, Each chain is the variable region followed by the constant region; also called IB12 (name of the expression plasmid)) VH: EVQLVESGGGLVQPGGSLRLSCAASGFTFNNYAMSWVRQAPGKGLEWVSTISSDGTYTYYADSVKGRFTISRDNSKNTLYLQMNSLRAEDTAVYYCARHPPSYYYAFDYWGQGTTLTVSS VL: EIVLTQSPGTLSLSPGERATLSCRASESVDSYGNSFIHWYQQKPGQAPRLLIYLASNLESGIPDRFSGSGSGTDFTLTISRLEPEDFAVYYCQQNNEDLWTFGGGTKLEIKA",Kd,[1],22.6 nM
same,koff,[1],0.0127 s⁻¹
same,kon,[1],564000 M⁻¹ s⁻¹
same,koff,[2],< 1e-07 s⁻¹
same,kon,[2],569000 M⁻¹ s⁻¹

# From EP4696312A1 (IMBIORAY (HANGZHOU) BIOMEDICINE CO., LTD., dated 2024)
